Data as given in patent US11434289B2, “Anti-GPR20 antibody and anti-GPR20 antibody-drug conjugate” (DAIICHI SANKYO COMPANY, LIMITED, priority 2017, dated 2022).

What was measured:
[1] = biological target: T1, human GPR20 (Homo sapiens, UniProt Q99678); assay: Analysis of GPR20-binding site of anti-GPR20 antibodies by Cell-ELISA; details: EC1 = positions 1 to 48, EC2 = positions 108 to 125 of human GPR20
T1 construct: expressed in transfected cells; host or cells: 293T cells, transient, Lipofectamine 2000
Experimental: (§1) The culture supernatant of the 293a cells transfected with the expression vector prepared in Example 1)-4-1 was removed, and the culture supernatant from each hybridoma was then added to the 293a cells transfected either with pcDNA3.1-hGPR20 or pcDNA3.1. The cells were left standing at 4° C. for 1 hour. The cells in the wells were washed once with PBS (+) supplemented with 5% FBS, and thereafter, Anti-Rat IgG-Peroxidase antibody produced in rabbit (Sigma-Aldrich Co. LLC) that had been 500-fold diluted with PBS (+) supplemented with 5% FBS was added to the wells. The cells were left standing at 4° C. for 1 hour. The cells in the wells were washed three times with PBS (+) supplemented with 5% FBS, and thereafter, OPD chromogenic solution (which had been prepared by dissolving o-phenylenediamine dihydrochloride (Wako Pure Chemical Industries, Ltd.) and H2O2 in an OPD solution (0.05 M trisodium citrate, 0.1 M disodium hydrogen phosphate 12-water; pH 4.5), so that the substances became 0.4 mg/ml and 0.6% (v/v), respectively) was added in an amount of 100 μL/well to the wells. A coloring reaction was carried out with occasional stirring. Thereafter, 1 M HCl was added to the plate (100 μL/well) to terminate the coloring reaction, followed by measurement of the absorbance at 490 nm using a plate reader (ENVISION: PerkinElmer, Inc.).
Binding sites of anti-human GPR20 antibodies were classified by measuring their binding activity against mouse GPR20, N-terminally FLAG-tagged human GPR20, and human/mouse chimeric GPR20 in which each of four extracellular regions (EC1, EC2, EC3, and EC4) of human GPR20 was substituted with a mouse GPR20-derived sequence, respectively, by Cell-ELISA. FIG. 21 is a diagram of the comparison between the amino acid sequences of human GPR20 (NP_005284) and mouse GPR20 (NP_775541). The four extracellular regions EC1 to EC4 are represented by positions in the amino acid sequence of human GPR20. EC1 corresponds to positions 1 to 48, EC2 corresponds to positions 108 to 125, EC3 corresponds to positions 190 to 196, and EC4 corresponds to positions 260 to 275. […]

[2] = biological target: T2, mouse GPR20 (Mus musculus, UniProt Q8BYC4); assay: Cell-ELISA binding to 293α cells expressing mouse GPR20; details: transiently transfected 293α cells, FIG. 22
T2 construct: using the full-length mouse GPR20 expression vector pcDNA-mGPR20 constructed in 4)-1 as a template; expressed in transfected cells; host or cells: 293α cells, transient
Experimental: as §1
According to a method known to a person skilled in the art, cDNA was artificially synthesized based on Ref Seq sequence NM_173365 of mouse GPR20, and then cloned into pcDNA-DEST40 expression vector (Invitrogen Corp.) to construct mouse GPR20 expression vector pcDNA-mGPR20.
The binding activity of the anti-GPR20 antibodies 04-046, 04-079, 04-126, 04-021, 13-024, and 13-048 against 293a cells into which different GPR20 expression vectors were transiently introduced was examined by the same method as the Cell-ELISA method shown in Example 1. […]

[3] = biological target: T3, human GPR20 with EC1 substituted with a mouse GPR20-derived sequence (Mus musculus, UniProt Q8BYC4, A277V/A334G/A336G/DEL187-187/DEL317-317/F111Y/F318R/G190S/I170A/I299V/I338H/I343A/K166R/K271H/K319E/K330R/M323G/N268D/P337R/P351A/Q152R/R229H/R314H/S188T/S192P/S345P/T332S/T347A/T353A/T60A/T88I/V178A/V247I/V269M/V56A/W159C/Y312G); assay: Cell-ELISA binding to human/mouse chimeric GPR20 (EC1 substituted); details: hGPR20_mECD1, FIG. 22
T3 construct: expressed in transfected cells; host or cells: 293α cells, transient
Experimental: as §1
An expression vector for human GPR20 with EC1 substituted with a mouse GPR20-derived sequence was constructed using an In-Fusion (registered trademark) HD Cloning Kit (Clontech Laboratories, Inc.). Specifically, using the full-length human GPR20 expression vector pcDNA3.1-hGPR20 produced in Example 1 as a template, a PCR reaction was carried out with the primer set given below and KOD FX DNA polymerase (Toyobo Co., Ltd.) at 10 cycles each involving 98° C. for 10 seconds, 58° C. for 30 seconds, and 68° C. for 7 minutes to amplify a DNA fragment comprising the vector sequence. […]

[4] = biological target: T4, human GPR20 with EC2 substituted with a mouse GPR20-derived sequence (Homo sapiens, UniProt Q99678, Y113F); assay: Cell-ELISA binding to human/mouse chimeric GPR20 (EC2 substituted); details: hGPR20_mECD2, FIG. 22
T4 construct: expressed in transfected cells; host or cells: 293α cells, transient
Experimental: as §1
In the construction of expression vectors given below, using the full-length human GPR20 expression vector pcDNA3.1-hGPR20 produced in Example 1 as a template, each PCR reaction was carried out with the primer set given below. In this reaction, KOD FX DNA polymerase (Toyobo Co., Ltd.) was used, and the reaction was carried out at 15 cycles or 10 cycles each involving 98° C. for 10 seconds, 58° C. for 30 seconds, and 68° C. for 7 minutes. Thereafter, the obtained PCR product was treated with the restriction enzyme Dpnl. […]

T2 sequence (Q8BYC4 whole entry): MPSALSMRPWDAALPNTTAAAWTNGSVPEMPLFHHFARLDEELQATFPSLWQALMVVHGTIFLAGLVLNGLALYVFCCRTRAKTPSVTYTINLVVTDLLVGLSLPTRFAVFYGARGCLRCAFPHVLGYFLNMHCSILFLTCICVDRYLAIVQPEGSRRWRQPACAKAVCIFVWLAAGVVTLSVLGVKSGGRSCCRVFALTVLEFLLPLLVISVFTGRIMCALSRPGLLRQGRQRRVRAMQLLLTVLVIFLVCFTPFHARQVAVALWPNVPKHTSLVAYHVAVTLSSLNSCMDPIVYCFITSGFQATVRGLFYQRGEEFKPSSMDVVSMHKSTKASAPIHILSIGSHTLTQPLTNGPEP
T3 sequence (Q8BYC4 with tags, fused parts or gaps with the stated changes): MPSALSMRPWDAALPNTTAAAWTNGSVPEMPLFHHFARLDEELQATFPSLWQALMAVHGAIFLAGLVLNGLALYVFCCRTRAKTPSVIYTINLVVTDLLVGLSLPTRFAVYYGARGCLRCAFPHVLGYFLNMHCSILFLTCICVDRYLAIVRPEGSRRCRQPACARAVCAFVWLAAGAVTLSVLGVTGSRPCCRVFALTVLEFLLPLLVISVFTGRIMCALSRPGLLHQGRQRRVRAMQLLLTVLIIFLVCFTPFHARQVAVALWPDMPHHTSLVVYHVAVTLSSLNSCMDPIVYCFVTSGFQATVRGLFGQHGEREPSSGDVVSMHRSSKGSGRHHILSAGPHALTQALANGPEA
T1 sequence (Q99678 whole entry): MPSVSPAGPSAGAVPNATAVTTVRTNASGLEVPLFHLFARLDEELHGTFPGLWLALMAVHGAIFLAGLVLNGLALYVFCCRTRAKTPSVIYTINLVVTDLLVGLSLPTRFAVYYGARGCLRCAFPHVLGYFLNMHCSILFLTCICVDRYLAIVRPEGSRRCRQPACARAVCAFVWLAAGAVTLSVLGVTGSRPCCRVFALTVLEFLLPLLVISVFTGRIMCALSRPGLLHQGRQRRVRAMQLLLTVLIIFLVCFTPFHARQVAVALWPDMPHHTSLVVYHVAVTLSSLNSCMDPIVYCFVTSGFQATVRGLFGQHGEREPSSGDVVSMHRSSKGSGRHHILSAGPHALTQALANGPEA
T4 sequence (Q99678 whole entry Y113F): as the sequence (Q99678 whole entry) above, with Y113F counted along it

B1: 04-079: rat anti-human GPR20 antibody; heavy chain SEQ ID NO: 12, light chain SEQ ID NO: 17 (antibody, listed as Rattus norvegicus)
heavy: MEWNWVFLFLLSVTAVVHSQVQLQQSGAELAKPGSSVKISCKASGYTFTSYYITWIKQTTGQGLKYIGYINPGSGHTNYNEKFKGKATLTVDKSSSTAFMQLSSLTPDDSAVYYCARGAGGFLRIISKFDYWGQGVMVTVSSAQTTAPSVYPLAPGCGDTTSSTVTLGCLVKGYFPEPVTVTWNSGALSSDVHTFPAVLQSGLYTLTSSVTSSTWPSQTVTCNVAHPASSTKVDKKVERRNGGIGHKCPTCPTCHKCPVPELLGGPSVFIFPPKPKDILLISQNAKVTCVVVDVSEEEPDVQFSWFVNNVEVHTAQTQPREEQYNSTFRVVSALPIQHQDWMSGKEFKCKVNNKALPSPIEKTISKPKGLVRKPQVYVMGPPTEQLTEQTVSLTCLTSGFLPNDIGVEWTSNGHIEKNYKNTEPVMDSDGSFFMYSKLNVERSRWDSRAPFVCSVVHEGLHNHHVEKSISRPPGK
light: METDRLLLWVLLLWVPGSTGDTVLTQSPALAVSLGQRVTISCRASKSVSTYMHWYQQRSGQQPKLLIYSASNLESGVPSRFSGSGSGTDFTLTIDPVKADDITNYYCQQSNELPYTFGAGTKLELKRADAAPTVSIFPPSTEQLATGGASVVCLMNNFYPRDISVKWKIDGTERRDGVLDSVTDQDSKDSTYSMSSTLSLTKADYESHNLYTCEVVHKTSSSPVVKSFNRNEC
modifications: SIGNAL (1)..(19); SIGNAL (1)..(20)
- GPR20 extracellular region recognized [1]: EC1, EC2
- binding activity against mouse GPR20 [2]: did not bind
- binding activity after substituting EC1 of human GPR20 with that of mouse-derived GPR20 [3]: lost binding activity
- binding activity after substituting EC2 of human GPR20 with that of mouse-derived GPR20 [4]: lost binding activity

B2: 04-046: rat anti-human GPR20 antibody; heavy chain SEQ ID NO: 2, light chain SEQ ID NO: 7 (antibody, listed as Rattus norvegicus)
heavy: MEWNWVFLFLLSVTAEVHSQVQLQQSGAELAKPGSSVKISCKASGYTFTSYYISWIKQTTGQGLKYIGFINPGSGHTNYNEKFKGKATLTVDKSSSTAFMQLSSLTPDDSAIYYCARGAGGFLRIITKFDYWGQGVMVTVSSAQTTAPSVYPLAPGCGDTTSSTVTLGCLVKGYFPEPVTVTWNSGALSSDVHTFPAVLQSGLYTLTSSVTSSTWPSQTVTCNVAHPASSTKVDKKVERRNGGIGHKCPTCPTCHKCPVPELLGGPSVFIFPPKPKDILLISQNAKVTCVVVDVSEEEPDVQFSWFVNNVEVHTAQTQPREEQYNSTFRVVSALPIQHQDWMSGKEFKCKVNNKALPSPIEKTISKPKGLVRKPQVYVMGPPTEQLTEQTVSLTCLTSGFLPNDIGVEWTSNGHIEKNYKNTEPVMDSDGSFFMYSKLNVERSRWDSRAPFVCSVVHEGLHNHHVEKSISRPPGK
light: METDRLLLWVLLLWVPGSTGDTVLTQSPALAVSLGQRVTISCRASKSVSTYIHWYQQRSGQQPKLLIYSASNLESGVPSRFSGSGSGTDFTLTIDPVEPDDIANYYCQQINELPYTFGAGTKLELKRADAAPTVSIFPPSTEQLATGGASVVCLMNNFYPRDISVKWKIDGTERRDGVLDSVTDQDSKDSTYSMSSTLSLTKADYESHNLYTCEVVHKTSSSPVVKSFNRNEC
modifications: SIGNAL (1)..(19); SIGNAL (1)..(20)
- GPR20 extracellular region recognized [1]: EC1, EC2
- binding activity against mouse GPR20 [2]: did not bind
- binding activity after substituting EC1 of human GPR20 with that of mouse-derived GPR20 [3]: lost binding activity
- binding activity after substituting EC2 of human GPR20 with that of mouse-derived GPR20 [4]: lost binding activity

B3: 04-126: rat anti-human GPR20 antibody; heavy chain SEQ ID NO: 22, light chain SEQ ID NO: 27 (antibody, listed as Rattus norvegicus)
heavy: MEWNWVFLFLLSVTAEVHSQVQLRQSGAELAKPGSSVKISCKASGYTFTSYYIIWMKQTAGQGLQYVGYINPGSGHTNYNEKFKGKATLTVDKSSSTAFMQLSSLTPDDSAVYYCARGTGGFLRIISKFDYWGQGVMVTVSSAQTTAPSVYPLAPGCGDTTSSTVTLGCLVKGYFPEPVTVTWNSGALSSDVHTFPAVLQSGLYTLTSSVTSSTWPSQTVTCNVAHPASSTKVDKKVERRNGGIGHKCPTCPTCHKCPVPELLGGPSVFIFPPKPKDILLISQNAKVTCVVVDVSEEEPDVQFSWFVNNVEVHTAQTQPREEQYNSTFRVVSALPIQHQDWMSGKEFKCKVNNKALPSPIEKTISKPKGLVRKPQVYVMGPPTEQLTEQTVSLTCLTSGFLPNDIGVEWTSNGHIEKNYKNTEPVMDSDGSFFMYSKLNVERSRWDSRAPFVCSVVHEGLHNHHVEKSISRPPGK
light: METDRLLLWVLLLWVPGSTGDTVLTQSPALAVSLGQRVTISCRASKSVSTYMHWYQQRSGQQPKLLIYSASTLESGVPSRFSGSGSGTDFTLTIDPVEADDIANYYCQQSNELPYTFGAGTKLELKRADAAPTVSIFPPSTEQLATGGASVVCLMNNFYPRDISVKWKIDGTERRDGVLDSVTDQDSKDSTYSMSSTLSLTKADYESHNLYTCEVVHKTSSSPVVKSFNRNEC
modifications: SIGNAL (1)..(19); SIGNAL (1)..(20)
- GPR20 extracellular region recognized [1]: EC1, EC2
- binding activity against mouse GPR20 [2]: did not bind
- binding activity after substituting EC1 of human GPR20 with that of mouse-derived GPR20 [3]: lost binding activity
- binding activity after substituting EC2 of human GPR20 with that of mouse-derived GPR20 [4]: lost binding activity
